The values that follow come from patent US20250215104A1 (WALDEN BIOSCIENCES, published 2025).

To fix the notation:
B1: suPAR_DB01_G09 (scFv, V domains shown)
VH: QVQLVQSGAEVKKPGASVKVSCKASGHTLNSYYMHWVRQAPGQGLEWMGWIDPENGNTIYAQKFQGRVTMTRDTSTSTVYMELSSLRSEDTAVYYCARGYDVDWFVYWGQGTLVTVSS
VL: DIQMTQSPSSLSASVGDRVTITCSARQSVSYMYWYQQKPGKAPKLLIYRTSNLASGVPSRFSGSGSGTDFTLTISSLQPEDFATYYCQQYHSYPPTFGGGTKVEIK
notes: Screened as scFv
B2: suPAR_DB02_A03 (scFv, V domains shown)
VH: B1 VH with H27Y, L29F, N30T, S31D, M34I
VL: B1 VL with Q27S
notes: Screened as scFv
B3: suPAR_DB01_H07 (scFv, V domains shown)
VH: B1 VH with H27D, L29F, N30S, S31N, P53H, N57S
VL: B1 VL with Q27S
notes: Screened as scFv
B4: suPAR_DB02_A07 (scFv, V domains shown)
VH: QVQLVQSGAEVKKPGASVKVSCKASGYNIKDYYIHWVRQAPGQGLEWMGWISPDSGVTNYAQKFQGRVTMTRDTSTSTVYMELSSLRSEDTAVYYCARGYDVDWFVYWGQGTLVTVSS
VL: B1 VL
notes: Screened as scFv
B5: suPAR_DB01_G12 (scFv, V domains shown)
VH: B1 VH with H27D, L29F, N30S, S31N, P53H, A61D
VL: B1 VL with Q27S, V29I
notes: Screened as scFv
B6: suPAR_DB01_H01 (scFv, V domains shown)
VH: B1 VH with H27D, L29F, N30T, A61D
VL: B1 VL with Q27S
notes: Screened as scFv
B7: suPAR_DB01_H03 (scFv, V domains shown)
VH: B1 VH with H27D, L29I, N30T, S31N, P53T, E54N, N55S, N57G, I59Q
VL: B1 VL with Q27S
notes: Screened as scFv
B8: suPAR_DB02_A04 (scFv, V domains shown)
VH: B1 VH with H27Y, L29F, N30T, S31G, M34V, P53H, A61D
VL: B1 VL with S24R, R26S, Q27S
notes: Screened as scFv
B9: suPAR_DB01_H04 (scFv, V domains shown)
VH: B1 VH with H27Y, L29F, N30T, S31N, E54N, N55S, N57G, I59N
VL: B1 VL with Q27S
notes: Screened as scFv
B10: suPAR_DB02_A05 (scFv, V domains shown)
VH: B1 VH with H27D, L29F, N30T
VL: B1 VL
notes: Screened as scFv
B11: suPAR_DB01_H06 (scFv, V domains shown)
VH: B1 VH with H27F, T28N, L29I, N30K, S31D, A61D
VL: B1 VL with V29I
notes: Screened as scFv
B12: suPAR_DB01_H10 (scFv, V domains shown)
VH: B1 VH with H27Y, L29F, N30T, S31N, P53H, N57S
VL: B1 VL
notes: Screened as scFv
B13: suPAR_DB01_H05 (scFv, V domains shown)
VH: B1 VH with H27Y, L29F, N30T, S31G, Y32N, M34V, P53H, A61D
VL: B1 VL with Q27S
notes: Screened as scFv
B14: suPAR_DB01_G10 (scFv, V domains shown)
VH: B1 VH with H27Y, L29F, N30T, S31N, P53H, N55G, I59S
VL: B1 VL with Q27S
notes: Screened as scFv

Positions count from the first letter of the chain named.

T2 sequence (Q9GK78 23-303 limits assumed): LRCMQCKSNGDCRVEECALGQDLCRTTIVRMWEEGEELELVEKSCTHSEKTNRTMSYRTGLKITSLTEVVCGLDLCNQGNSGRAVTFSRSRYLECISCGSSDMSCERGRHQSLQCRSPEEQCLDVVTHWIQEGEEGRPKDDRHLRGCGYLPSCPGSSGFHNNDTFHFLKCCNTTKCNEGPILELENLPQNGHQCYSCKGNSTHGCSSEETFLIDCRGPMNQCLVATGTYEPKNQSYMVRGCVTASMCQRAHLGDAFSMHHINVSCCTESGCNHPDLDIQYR
T1 sequence (Q03405 23-303 limits assumed): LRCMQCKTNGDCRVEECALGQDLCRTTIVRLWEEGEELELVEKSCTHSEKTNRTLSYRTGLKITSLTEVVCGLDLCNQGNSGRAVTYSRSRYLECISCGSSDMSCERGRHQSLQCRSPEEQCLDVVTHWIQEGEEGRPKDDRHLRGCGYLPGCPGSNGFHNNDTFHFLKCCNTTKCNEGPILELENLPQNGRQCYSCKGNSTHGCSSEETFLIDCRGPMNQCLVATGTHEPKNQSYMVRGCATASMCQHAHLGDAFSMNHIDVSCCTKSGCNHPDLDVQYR

One test addresses T1, human soluble urokinase plasminogen activator receptor (hsuPAR) (human, UniProt Q03405 23-303, limits assumed).
T1 construct: also called human suPAR; rhuPAR-His
Put plainly: BLI (Octet) off-rate screen of scFv.
Usually koff stands for the rate constant with which the complex falls apart. Read a low koff as slow dissociation. Take B1: the koff was found to be 0.00433 s⁻¹.
The same measure, in the same setting: then B2, with 0.00198 s⁻¹; and B3, with 0.00138 s⁻¹.
B4 showed an off-rate (koff) of 0.00114 s⁻¹.
B5 came in with a dissociation rate constant (koff) of 0.00466 s⁻¹.
On the same count and under the same terms, the result for B6 reads 0.00454 s⁻¹; that for B7, 0.001 s⁻¹; that for B8, 0.00236 s⁻¹.
The same measure, in the same setting: the result for B9 reads 0.00242 s⁻¹; that for B10, 0.00521 s⁻¹; that for B11, 0.0052 s⁻¹.
Same read-out and setting: the result for B12 reads 0.000603 s⁻¹; that for B13, 0.00152 s⁻¹.
The molecule B14 returned a koff of 0.00343 s⁻¹.

A further test concerns the target T2, cynomolgus soluble urokinase plasminogen activator receptor (cynomolgus suPAR) (cynomolgus, UniProt Q9GK78 23-303, limits assumed).
T2 construct: also called cynomolgus uPAR; cynoPLAUR-His
Put plainly: BLI (Octet) off-rate screen of scFv. For orientation: BLI is a label-free optical method that tracks binding on a fibre tip over time.
Regarding B1, the koff was 0.000347 s⁻¹.
With B2, the koff was found to be 0.000341 s⁻¹.
The same measure, in the same setting: the result for B3 reads 0.000219 s⁻¹.
Still for that read-out and setting: then B4, with 0.000352 s⁻¹.
The molecule B5 came in with a koff of 0.000247 s⁻¹.
B6 came in with a koff of 0.000122 s⁻¹.
Still for that read-out and setting: the result for B7 reads 0.000677 s⁻¹.
B8 gave a dissociation rate constant (koff) of 0.000521 s⁻¹.
The same measure, in the same setting: then B9, with 0.000225 s⁻¹; and B10, with 0.000151 s⁻¹.
B11 gave a koff of 0.000129 s⁻¹.
Still for that read-out and setting: the result for B12 reads 0.000374 s⁻¹.
Same read-out and setting: the result for B13 reads 0.000432 s⁻¹.
Same read-out and setting: then B14, with 0.000197 s⁻¹.
